# Measured values taken from publication PMC4051164, “Multiple transcription factors directly regulate Hox gene lin-39 expression in ventral hypodermal cells of the C. elegans embryo and larva, including the hypodermal fate regulators LIN-26 and ELT-6”.
# T1: ZTF-17 (Caenorhabditis elegans, UniProt P45972 1-705)
# T1 sequence: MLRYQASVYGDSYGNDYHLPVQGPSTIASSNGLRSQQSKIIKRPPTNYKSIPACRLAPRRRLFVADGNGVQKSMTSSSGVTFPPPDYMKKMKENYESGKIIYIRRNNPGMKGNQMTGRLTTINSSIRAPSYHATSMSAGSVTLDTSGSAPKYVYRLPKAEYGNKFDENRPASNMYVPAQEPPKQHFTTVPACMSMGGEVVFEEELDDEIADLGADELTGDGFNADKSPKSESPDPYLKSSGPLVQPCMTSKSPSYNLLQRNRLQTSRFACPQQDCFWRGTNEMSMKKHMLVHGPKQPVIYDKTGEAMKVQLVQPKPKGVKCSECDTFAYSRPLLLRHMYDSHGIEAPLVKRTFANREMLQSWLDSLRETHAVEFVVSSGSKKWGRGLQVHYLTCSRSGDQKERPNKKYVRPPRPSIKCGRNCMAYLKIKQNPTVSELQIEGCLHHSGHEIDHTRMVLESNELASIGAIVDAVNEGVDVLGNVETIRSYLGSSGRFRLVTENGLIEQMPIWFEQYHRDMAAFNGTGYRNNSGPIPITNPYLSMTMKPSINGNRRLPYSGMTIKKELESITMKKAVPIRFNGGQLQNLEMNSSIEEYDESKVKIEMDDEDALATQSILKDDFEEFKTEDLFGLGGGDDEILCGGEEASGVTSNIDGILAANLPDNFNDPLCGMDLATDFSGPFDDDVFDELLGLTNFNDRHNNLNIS
# What was measured:
# [1] = molecular target: T1, ZTF-17; experiment: EMSA; also competes vs YF4-2; 50 mM KCl, 20 mM HEPES pH 7.9, 0.2 mM EDTA, 0.5 mM DTT, 3 mM MgCl2, 1 ug poly(dI-dC), 0.5 ug/ul BSA, 0-800 ng protein, 20 ul, 20 min on ice (4 C); details: protein: recombinant; tags: N-terminal 6His (pQE-80L); label: 32P (probe); blunt
# [2] = molecular target: T1, ZTF-17; experiment: EMSA; 50 mM KCl, 20 mM HEPES pH 7.9, 0.2 mM EDTA, 0.5 mM DTT, 3 mM MgCl2, 1 ug poly(dI-dC), 0.5 ug/ul BSA, 0-800 ng protein, 20 ul, 20 min on ice (4 C); details: protein: recombinant; tags: N-terminal 6His (pQE-80L); label: 32P; blunt
# [3] = molecular target: T1, ZTF-17; experiment: competition; cold competitor vs YF4-2; 50 mM KCl, 20 mM HEPES pH 7.9, 0.2 mM EDTA, 0.5 mM DTT, 3 mM MgCl2, 1 ug poly(dI-dC), 0.5 ug/ul BSA, 0-800 ng protein, 20 ul, 20 min on ice (4 C); details: protein: recombinant; tags: N-terminal 6His (pQE-80L); blunt
# [4] = molecular target: ALR-1 (Caenorhabditis elegans, UniProt Q21836 1-362); experiment: EMSA; self competes; 50 mM KCl, 20 mM HEPES pH 7.9, 0.2 mM EDTA, 0.5 mM DTT, 3 mM MgCl2, 1 ug poly(dI-dC), 0.5 ug/ul BSA, 0-800 ng protein, 20 ul, 20 min on ice (4 C); details: protein: recombinant; tags: N-terminal 6His (pQE-80L); label: 32P; blunt
# Chain of ALR-1 (Q21836 whole entry): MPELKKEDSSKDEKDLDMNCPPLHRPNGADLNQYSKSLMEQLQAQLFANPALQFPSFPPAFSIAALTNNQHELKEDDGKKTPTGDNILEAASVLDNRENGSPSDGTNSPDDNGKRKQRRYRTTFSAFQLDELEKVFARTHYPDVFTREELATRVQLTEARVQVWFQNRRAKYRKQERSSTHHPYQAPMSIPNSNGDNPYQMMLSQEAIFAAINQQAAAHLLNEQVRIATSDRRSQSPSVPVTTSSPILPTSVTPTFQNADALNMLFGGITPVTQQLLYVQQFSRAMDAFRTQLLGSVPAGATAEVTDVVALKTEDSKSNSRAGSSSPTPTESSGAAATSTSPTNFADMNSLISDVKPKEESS
binder,measurement,setting,value
YF4-4 (dsDNA) DNA 1: GCTCCACCCTTCACGTGTATCAGTACGTCTGCGTCTTCTTGTGCGTGCCGCCCGGATTAGAAGACATGAAGTGGGAGGGCGATAGAGGAAATTCCGATGGCAATACCAAC DNA 2: GTTGGTATTGCCATCGGAATTTCCTCTATCGCCCTCCCACTTCATGTCTTCTAATCCGGGCGGCACGCACAAGAAGACGCAGACGTACTGATACACGTGAAGGGTGGAGC,binding result,[1],binds
YF4-2 (dsDNA) DNA 1: GAGCAAGAGATGTGCTCTCGGCTCCACGAACCTCTTTGATCTATGCCGACAGTGGGGGAGATTGGAGAAGAAGCATGCTCCACCCTTCACGTGTATCAGTACGTCTGCGTCTTCTTGTGCGTGCCGCCCGGATTAGAAGACATGAAGTGGGAGGGCGATAGAGGAAATTCCGATGGCAATACCAAC DNA 2: GTTGGTATTGCCATCGGAATTTCCTCTATCGCCCTCCCACTTCATGTCTTCTAATCCGGGCGGCACGCACAAGAAGACGCAGACGTACTGATACACGTGAAGGGTGGAGCATGCTTCTTCTCCAATCTCCCCCACTGTCGGCATAGATCAAAGAGGTTCGTGGAGCCGAGAGCACATCTCTTGCTC,binding result,[2],binds
YF4-3 (dsDNA) DNA 1: GAGCAAGAGATGTGCTCTCGGCTCCACGAACCTCTTTGATCTATGCCGACAGTGGGGGAGATTGGAGAAGAAGCATGCTCCACCCTTCACGTGTATCAGTACG DNA 2: CGTACTGATACACGTGAAGGGTGGAGCATGCTTCTTCTCCAATCTCCCCCACTGTCGGCATAGATCAAAGAGGTTCGTGGAGCCGAGAGCACATCTCTTGCTC,binding result,[3],no binding
ECR2 (dsDNA) DNA 1: CCCATATGCTTCCTGCTGTGTGTGGCACGAGCGCCAATAA DNA 2: TTATTGGCGCTCGTGCCACACACAGCAGGAAGCATATGGG,binding result,[4],binds
